{"source": "patent US20100203582", "target": "T1, peptide SAVLQMGFRK, Substrate (7)", "T1 chain": "SAVLQMGFRK", "data": [{"protein": "wild-type severe acute respiratory syndrome-associated coronavirus 3C-like protease (SARS-CoV 3CL^pro) (protein) SGFRKMAFPSGKVEGCMVQVTCGTTTLNGLWLDDTVYCPRHVICTAEDMLNPNYEDLLIRKSNHSFLVQAGNVQLRVIGHSMQNCLLRLKVDTSNPKTPKYKFVRIQPGQTFSVLACYNGSPSGVYQCAMRPNHTIKGSFLNGSCGSVGFNIDYDCVSFCYMHHMELPTGVHAGTDLEGKFYGPFVDRQTAQAAGTDTTITLNVLAWLYAAVINGDRWFLNRFTTTLNDFNLVAMKYNYEPLTQDHVDILGPLSAQTGIAVLDMCAALKELLQNGMNGRTILGSTILEDEFTPFDVVRQCSGVTFQ", "values": [{"measurement": "Km", "value": "Km is 76.6±3.5 µM"}, {"measurement": "kcat", "value": "kcat is 1.6±0.2 min^-1"}, {"measurement": "kcat/Km", "value": "kcat/Km=0.02 µM^-1min^-1"}]}]}
